Test results: patent US20100061983A1 (published 2010)

T1: human CXC Chemokine Receptor 3 (CXCR3) (human, UniProt P49682 1-368)
T1 construct: also called IP-10/Mig receptor; IP-10/MigR
T1 sequence: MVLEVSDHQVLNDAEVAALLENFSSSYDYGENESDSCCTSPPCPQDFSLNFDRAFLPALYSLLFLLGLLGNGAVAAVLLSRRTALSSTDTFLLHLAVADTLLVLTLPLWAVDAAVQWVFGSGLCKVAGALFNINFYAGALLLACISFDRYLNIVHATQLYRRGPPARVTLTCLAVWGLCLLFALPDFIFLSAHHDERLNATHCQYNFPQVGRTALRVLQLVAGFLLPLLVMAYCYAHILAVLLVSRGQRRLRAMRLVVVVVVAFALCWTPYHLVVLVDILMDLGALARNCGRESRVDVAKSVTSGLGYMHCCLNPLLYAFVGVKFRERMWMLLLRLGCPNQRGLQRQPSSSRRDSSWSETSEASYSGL

B1: I309 (ligand, human, UniProt P22362 24-96, looked up)
chain: KSMQVPFSRCCFSFAEQEIPLRAILCYRNTSSICSNEGLIFKLKRGKEACALDTVGWVQRHRKMLRHCPSKRK
B2: Mig (monokine induced by gamma interferon) (ligand, human, UniProt Q07325 23-125, looked up)
chain: TPVVRKGRCSCISTNQGTIHLQSLKDLKQFAPSPSCEKIEIIATLKNGVQTCLNPDSADVKELIKKWEKQVSQKKKQKNGKKHQKKKVLKVRKSQRSRQKKTT
notes: also called cold Mig
B3: PF4 (platelet factor 4) (ligand, human, UniProt P02776 32-101, looked up)
chain: EAEEDGDLQCLCVKTTSQVRPRHITSLEVIKAGPHCPTAQLIATLKNGRKICLDLQAPLYKKIIKKLLES
B4: NAP-2 (neutrophil-activating protein-2) (ligand, human, UniProt P02775 59-128, looked up)
chain: AELRCMCIKTTSGIHPKNIQSLEVIGKGTHCNQVEVIATLKDGRKICLDPDAPRIKKIVQKKLAGDESAD

What was measured:
[1] = target: T1, human CXC Chemokine Receptor 3 (CXCR3); experiment: cell-based or functional assay
[2] = target: T1, human CXC Chemokine Receptor 3 (CXCR3); experiment: inhibition of 125I-IP-10 binding to activated T cells
[3] = target: T1, human CXC Chemokine Receptor 3 (CXCR3); experiment: inhibition of 0.05 nM 125I-IP-10 binding to activated T cells (CD3 blasts)
[4] = target: T1, human CXC Chemokine Receptor 3 (CXCR3); experiment: summing-up of the radioligand binding studies; Mig itself was tested only as cold competitor of 125I-IP-10

Row | Molecule | [Ca2+]i changes in IP-10/MigR transfectants (no response up to the concentration given) [1] [nM] | other results
1 | ENA78 (epithelial-derived neutrophil-activating peptide 78) (from UniProt P42830 37-114) (ligand) | > 100 | –
2 | GCP-2 (granulocyte chemotactic protein-2) (from UniProt P80162 38-114) (ligand) | > 100 | –
3 | GROα (from UniProt P09341 35-107) (ligand) | > 100 | –
4 | IL-8 (interleukin 8) (from UniProt P10145 28-99) (ligand) | > 100 | –
5 | MCP-1 (monocyte chemotactic protein-1) (from UniProt P13500 24-99) (ligand) | > 100 | –
6 | MCP-2 (from UniProt P80075 24-99) (ligand) | > 100 | –
7 | MCP-3 (from UniProt P80098 24-99) (ligand) | > 100 | –
8 | MCP-4 (from UniProt Q99616 24-98) (ligand) | > 100 | –
9 | MIP-1α (macrophage inflammatory protein-1α) (from UniProt P10147 24-92) (ligand) | > 100 | –
10 | MIP-1β (from UniProt P13236 24-92) (ligand) | > 100 | –
11 | RANTES (regulated on activation, normal T cell expressed and secreted) (from UniProt P13501 24-91) (ligand) | > 100 | –
12 | eotaxin (from UniProt P51671 24-97) (ligand) | > 100 | –
13 | lymphotactin (from UniProt P47992 22-114) (ligand) | > 100 | –
14 | murine anti-CXCR3 monoclonal antibody 1C6 | – | IC50, inhibition of IP-10 (12.5 nM) induced chemotaxis of activated T cells [1]: 0.8 µg/mL; IC50, inhibition of IP-10 mediated chemotaxis of activated T cells [1]: 0.856 µg/mL; Mig (2 nM) induced [Ca2+]i in activated T cells (no effect up to the concentration given) [1]: > 50 µg/mL; antibody concentration giving 100% inhibition of IP-10 induced chemotaxis of activated T cells [1]: 2 to 5 µg/mL; antibody concentration giving complete inhibition of 125I-IP-10 binding [2]: 1 to 10 µg/mL; IC50 [3]: 0.16 µg/mL
15 | B1 | > 100 | –
16 | B2 | – | Kd [4]: 150 to 600 pM
17 | B3 | > 100 | –
18 | B4 | > 100 | –
